Results on 4 molecules are retold here after patent US7008780, “Chimeric DNA-binding proteins” (Massachusetts Institute of Technology).

In series [1] the target is T1, Zif268 zinc fingers 1-3 (UniProt P08046 P08046:336-416). The series is described as follows: EMSA; 10 mM Hepes pH 7.9, 50 mM KCl, 0.5 mM EDTA, 30 C; apparent Kd. Background: Mobility shift assays separate free from complexed probe on a gel.
Series [2] addresses GST-ZFHD1 (Zif268 fingers 1-2, GGRR linker, Oct-1 homeodomain) (synthetic chimera (mouse Zif268 / human …, UniProt P08046;P14859 P08046:333-390,P14859:378-439)). The description is as above. To be noted: tags: N-terminal GST (pGEX2T).
The target of series [3] is T1, Zif268 zinc fingers 1-3. Put plainly: EMSA.
In series [4] the target is Oct-1 POU domain (POU-specific domain and homeodomain) (UniProt P14859 P14859:280-438). The series is described as follows: EMSA; 10 mM Hepes pH 7.9, 50 mM KCl, 0.5 mM EDTA, 30 C; apparent Kd.
Oct-1 POU domain (POU-specific domain and homeodomain), sequence (P14859 280-438, one chain of several): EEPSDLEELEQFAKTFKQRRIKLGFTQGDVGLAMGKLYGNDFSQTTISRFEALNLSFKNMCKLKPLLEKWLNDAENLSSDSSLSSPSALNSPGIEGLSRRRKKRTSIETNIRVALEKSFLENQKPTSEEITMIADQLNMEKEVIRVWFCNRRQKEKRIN

B1: Zif268 site probe (dsDNA)
DNA 1: CCTCGAGGCGCCCACGCCTAGGTACC
DNA 2: GGTACCTAGGCGTGGGCGCCTCGAGG
Consider B1, for which the Kd with Zif268 zinc fingers 1-3 [1] turned out to be 0.33 nM.

B2: hybrid site probe TAATGATGGGCG (dsDNA)
DNA 1: CCTCGAGGCGCCCATCATTACTAGGTACC
DNA 2: GGTACCTAGTAATGATGGGCGCCTCGAGG
In the case of B2, the Kd in series [2] turned out to be 0.84 nM.

B3: hybrid site probe TCATTATGGGCG (dsDNA)
DNA 1: CCTCGAGGTCATTATGGGCGCTAGGTACC
DNA 2: GGTACCTAGCGCCCATAATGACCTCGAGG
For the molecule B3, in the series with Zif268 zinc fingers 1-3 [3], the binding result is on record as “no binding”.

B4: Oct-1 octamer site probe (dsDNA)
DNA 1: CCTCGAGGTCATTTGCATACTAGGTACC
DNA 2: GGTACCTAGTATGCAAATGACCTCGAGG
On to B4, for which, in series [4], the Kd is 0.18 nM.
